Four molecules from US20130137855A1 (CSL, published 2013) can be followed below.

The Kd is a measure of binding affinity in units of concentration.

Assay [1] has as its target Soluble human IL-3Rα (human) (UniProt P26951). Nature of the assay: SPR (Biacore), soluble human IL-3Rα immobilized on CM-5 chip, scFv injected, 25 °C.
In assay [2] the target is T1, Soluble human IL-3Rα (human, UniProt P26951 20-305, limits assumed).
T1 construct: The assay used 'soluble human IL-3Rα'; also called IL-3Rα chain; interleukin 3 receptor alpha chain
T1 sequence: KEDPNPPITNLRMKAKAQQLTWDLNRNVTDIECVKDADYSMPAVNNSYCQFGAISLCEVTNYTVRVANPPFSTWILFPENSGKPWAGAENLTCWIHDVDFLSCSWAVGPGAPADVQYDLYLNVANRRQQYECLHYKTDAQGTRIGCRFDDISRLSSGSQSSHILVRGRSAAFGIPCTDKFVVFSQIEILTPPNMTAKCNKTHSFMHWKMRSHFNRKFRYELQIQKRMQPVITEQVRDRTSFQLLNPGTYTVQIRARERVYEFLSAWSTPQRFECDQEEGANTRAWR
The assay is described as follows: SPR (Biacore), mAb captured by anti-human Fc antibody, soluble human IL-3Rα injected, 25 °C. (SPR reads the build-up and loss of mass on a sensor chip optically.)

The target in assay [3] is T1, Soluble human IL-3Rα. The assay is described as follows: SPR (Biacore), mAb captured by anti-mouse Fc antibody, soluble human IL-3Rα injected, 25 °C.

For the molecule CSL362 scFv, the Kd in assay [1] was found to be 2.2 nM.

In the assay with Soluble human IL-3Rα [2], “chimeric form of parental murine mAb (human IgG1) (antibody)” displayed a Kd of 1 nM. Regarding parental murine mAb (7G3) (antibody), the Kd with Soluble human IL-3Rα [3] stood at 0.92 nM.

B1: CSL362B (antibody, human IgG1, kappa, V domains shown)
VH: EVQLVQSGAEVKKPGESLKISCKGSGYSFTDYYMKWARQMPGKGLEWMGDIIPSNGATFYNQKFKGQVTISADKSISTTYLQWSSLKASDTAMYYCARSHLLRASWFAYWGQGTMVTVSS
VL: DIVMTQSPDSLAVSLGERATINCESSQSLLNSGNQKNYLTWYQQKPGQPPKPLIYWASTRESGVPDRFSGSGSGTDFTLTISSLQAEDVAVYYCQNDYSYPYTFGQGTKLEIKR
modifications: Heavy chain constant region is afucosylated
notes: Expressed in FUT8-knock-out CHO cells (Potelligent)
B1 returned a dissociation constant (Kd) with Soluble human IL-3Rα [2] of roughly 0.43 nM.
